The values that follow come from patent US20150344570A1 (published 2015).

The target in the experiment is T1, FcγRIIa R (human, UniProt P12318 34-217).
T1 construct: extracellular domain; also called FcgRIIa R type; 2aR
T1 sequence (looked up): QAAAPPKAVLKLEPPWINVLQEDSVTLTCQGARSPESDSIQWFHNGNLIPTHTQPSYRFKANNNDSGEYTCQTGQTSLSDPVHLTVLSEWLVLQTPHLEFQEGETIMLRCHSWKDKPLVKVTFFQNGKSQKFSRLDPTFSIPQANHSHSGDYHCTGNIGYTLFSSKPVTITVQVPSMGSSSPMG
The experiment can be described thus: SPR (Biacore), captured antibody, FcγR as analyte; relative binding activity. Background: In SPR one partner is held on a chip, and binding of the other changes the refractive index at the surface.

B1: GpH7-A5/GpH7-B3 variant G237_04F/GpL16-k0 (antibody, human IgG1, kappa)
heavy 1: not shown
heavy 2: not shown
light: DIVMTQSPLSLPVTPGEPASISCQASESLVHSNRNTYLHWYLQKPGQSPQLLIYKVSNRFSGVPDRFSGSGSGTDFTLKISRVEAEDVGVYYCSQNTHVPPTFGQGTKVEIERTVAAPSVFIFPPSDEQLKSGTASVVCLLNNFYPREAKVQWKVDNALQSGNSQESVTEQDSKDSTYSLSSTLTLSKADYEKHKVYACEVTHQGLSSPVTKSFNRGEC
notes: also called He Ab G237_04F
As to B1, the He/Con_2aR was 126 % (GpH7-A5/GpH7-B3/GpL16-k0 = 100).

B2: GpH7-A5/GpH7-B3 variant G237_09D/GpL16-k0 (antibody, human IgG1, kappa)
heavy 1: not shown
heavy 2: not shown
light: DIVMTQSPLSLPVTPGEPASISCQASESLVHSNRNTYLHWYLQKPGQSPQLLIYKVSNRFSGVPDRFSGSGSGTDFTLKISRVEAEDVGVYYCSQNTHVPPTFGQGTKVEIERTVAAPSVFIFPPSDEQLKSGTASVVCLLNNFYPREAKVQWKVDNALQSGNSQESVTEQDSKDSTYSLSSTLTLSKADYEKHKVYACEVTHQGLSSPVTKSFNRGEC
notes: also called He Ab G237_09D
As to B2, the He/Con_2aR was 156 % (GpH7-A5/GpH7-B3/GpL16-k0 = 100).

B3: GpH7-A5/GpH7-B3 variant H268_03V/GpL16-k0 (antibody, human IgG1, kappa)
heavy 1: not shown
heavy 2: not shown
light: DIVMTQSPLSLPVTPGEPASISCQASESLVHSNRNTYLHWYLQKPGQSPQLLIYKVSNRFSGVPDRFSGSGSGTDFTLKISRVEAEDVGVYYCSQNTHVPPTFGQGTKVEIERTVAAPSVFIFPPSDEQLKSGTASVVCLLNNFYPREAKVQWKVDNALQSGNSQESVTEQDSKDSTYSLSSTLTLSKADYEKHKVYACEVTHQGLSSPVTKSFNRGEC
notes: also called He Ab H268_03V
Consider B3, for which the He/Con_2aR is 109 % (GpH7-A5/GpH7-B3/GpL16-k0 = 100).

B4: GpH7-A5/GpH7-B3 variant G237_10E/GpL16-k0 (antibody, human IgG1, kappa)
heavy 1: not shown
heavy 2: not shown
light: DIVMTQSPLSLPVTPGEPASISCQASESLVHSNRNTYLHWYLQKPGQSPQLLIYKVSNRFSGVPDRFSGSGSGTDFTLKISRVEAEDVGVYYCSQNTHVPPTFGQGTKVEIERTVAAPSVFIFPPSDEQLKSGTASVVCLLNNFYPREAKVQWKVDNALQSGNSQESVTEQDSKDSTYSLSSTLTLSKADYEKHKVYACEVTHQGLSSPVTKSFNRGEC
notes: also called He Ab G237_10E
In the case of B4, the He/Con_2aR is 116 % (GpH7-A5/GpH7-B3/GpL16-k0 = 100).

B5: GpH7-A5/GpH7-B3 variant G237_18N/GpL16-k0 (antibody, human IgG1, kappa)
heavy 1: not shown
heavy 2: not shown
light: DIVMTQSPLSLPVTPGEPASISCQASESLVHSNRNTYLHWYLQKPGQSPQLLIYKVSNRFSGVPDRFSGSGSGTDFTLKISRVEAEDVGVYYCSQNTHVPPTFGQGTKVEIERTVAAPSVFIFPPSDEQLKSGTASVVCLLNNFYPREAKVQWKVDNALQSGNSQESVTEQDSKDSTYSLSSTLTLSKADYEKHKVYACEVTHQGLSSPVTKSFNRGEC
notes: also called He Ab G237_18N
With B5, the He/Con_2aR was 150 % (GpH7-A5/GpH7-B3/GpL16-k0 = 100).

B6: GpH7-A5/GpH7-B3 variant H268_12R/GpL16-k0 (antibody, human IgG1, kappa)
heavy 1: not shown
heavy 2: not shown
light: DIVMTQSPLSLPVTPGEPASISCQASESLVHSNRNTYLHWYLQKPGQSPQLLIYKVSNRFSGVPDRFSGSGSGTDFTLKISRVEAEDVGVYYCSQNTHVPPTFGQGTKVEIERTVAAPSVFIFPPSDEQLKSGTASVVCLLNNFYPREAKVQWKVDNALQSGNSQESVTEQDSKDSTYSLSSTLTLSKADYEKHKVYACEVTHQGLSSPVTKSFNRGEC
notes: also called He Ab H268_12R
In the case of B6, the He/Con_2aR is 105 % (GpH7-A5/GpH7-B3/GpL16-k0 = 100).

B7: GpH7-A5/GpH7-B3 variant G237_19Q/GpL16-k0 (antibody, human IgG1, kappa)
heavy 1: not shown
heavy 2: not shown
light: DIVMTQSPLSLPVTPGEPASISCQASESLVHSNRNTYLHWYLQKPGQSPQLLIYKVSNRFSGVPDRFSGSGSGTDFTLKISRVEAEDVGVYYCSQNTHVPPTFGQGTKVEIERTVAAPSVFIFPPSDEQLKSGTASVVCLLNNFYPREAKVQWKVDNALQSGNSQESVTEQDSKDSTYSLSSTLTLSKADYEKHKVYACEVTHQGLSSPVTKSFNRGEC
notes: also called He Ab G237_19Q
Regarding B7, the He/Con_2aR is 121 % (GpH7-A5/GpH7-B3/GpL16-k0 = 100).

B8: GpH7-A5/GpH7-B3 variant G237_13S/GpL16-k0 (antibody, human IgG1, kappa)
heavy 1: not shown
heavy 2: not shown
light: DIVMTQSPLSLPVTPGEPASISCQASESLVHSNRNTYLHWYLQKPGQSPQLLIYKVSNRFSGVPDRFSGSGSGTDFTLKISRVEAEDVGVYYCSQNTHVPPTFGQGTKVEIERTVAAPSVFIFPPSDEQLKSGTASVVCLLNNFYPREAKVQWKVDNALQSGNSQESVTEQDSKDSTYSLSSTLTLSKADYEKHKVYACEVTHQGLSSPVTKSFNRGEC
notes: also called He Ab G237_13S
As for B8, the He/Con_2aR is 121 % (GpH7-A5/GpH7-B3/GpL16-k0 = 100).

B9: GpH7-A5/GpH7-B3 variant H268_05P/GpL16-k0 (antibody, human IgG1, kappa)
heavy 1: not shown
heavy 2: not shown
light: DIVMTQSPLSLPVTPGEPASISCQASESLVHSNRNTYLHWYLQKPGQSPQLLIYKVSNRFSGVPDRFSGSGSGTDFTLKISRVEAEDVGVYYCSQNTHVPPTFGQGTKVEIERTVAAPSVFIFPPSDEQLKSGTASVVCLLNNFYPREAKVQWKVDNALQSGNSQESVTEQDSKDSTYSLSSTLTLSKADYEKHKVYACEVTHQGLSSPVTKSFNRGEC
notes: also called He Ab H268_05P
Turning to B9, the He/Con_2aR was 106 % (GpH7-A5/GpH7-B3/GpL16-k0 = 100).

B10: GpH7-A5/GpH7-B3 variant G237_08L/GpL16-k0 (antibody, human IgG1, kappa)
heavy 1: not shown
heavy 2: not shown
light: DIVMTQSPLSLPVTPGEPASISCQASESLVHSNRNTYLHWYLQKPGQSPQLLIYKVSNRFSGVPDRFSGSGSGTDFTLKISRVEAEDVGVYYCSQNTHVPPTFGQGTKVEIERTVAAPSVFIFPPSDEQLKSGTASVVCLLNNFYPREAKVQWKVDNALQSGNSQESVTEQDSKDSTYSLSSTLTLSKADYEKHKVYACEVTHQGLSSPVTKSFNRGEC
notes: also called He Ab G237_08L
For B10, the He/Con_2aR is 133 % (GpH7-A5/GpH7-B3/GpL16-k0 = 100).

B11: GpH7-A5/GpH7-B3 variant G237_06M/GpL16-k0 (antibody, human IgG1, kappa)
heavy 1: not shown
heavy 2: not shown
light: DIVMTQSPLSLPVTPGEPASISCQASESLVHSNRNTYLHWYLQKPGQSPQLLIYKVSNRFSGVPDRFSGSGSGTDFTLKISRVEAEDVGVYYCSQNTHVPPTFGQGTKVEIERTVAAPSVFIFPPSDEQLKSGTASVVCLLNNFYPREAKVQWKVDNALQSGNSQESVTEQDSKDSTYSLSSTLTLSKADYEKHKVYACEVTHQGLSSPVTKSFNRGEC
notes: also called He Ab G237_06M
In the case of B11, the He/Con_2aR was 133 % (GpH7-A5/GpH7-B3/GpL16-k0 = 100).

B12: GpH7-A5/GpH7-B3 variant G237_15Y/GpL16-k0 (antibody, human IgG1, kappa)
heavy 1: not shown
heavy 2: not shown
light: DIVMTQSPLSLPVTPGEPASISCQASESLVHSNRNTYLHWYLQKPGQSPQLLIYKVSNRFSGVPDRFSGSGSGTDFTLKISRVEAEDVGVYYCSQNTHVPPTFGQGTKVEIERTVAAPSVFIFPPSDEQLKSGTASVVCLLNNFYPREAKVQWKVDNALQSGNSQESVTEQDSKDSTYSLSSTLTLSKADYEKHKVYACEVTHQGLSSPVTKSFNRGEC
notes: also called He Ab G237_15Y
As for B12, the He/Con_2aR is 129 % (GpH7-A5/GpH7-B3/GpL16-k0 = 100).

B13: GpH7-A5/GpH7-B3 variant H268_01G/GpL16-k0 (antibody, human IgG1, kappa)
heavy 1: not shown
heavy 2: not shown
light: DIVMTQSPLSLPVTPGEPASISCQASESLVHSNRNTYLHWYLQKPGQSPQLLIYKVSNRFSGVPDRFSGSGSGTDFTLKISRVEAEDVGVYYCSQNTHVPPTFGQGTKVEIERTVAAPSVFIFPPSDEQLKSGTASVVCLLNNFYPREAKVQWKVDNALQSGNSQESVTEQDSKDSTYSLSSTLTLSKADYEKHKVYACEVTHQGLSSPVTKSFNRGEC
notes: also called He Ab H268_01G
In the case of B13, the He/Con_2aR was 124 % (GpH7-A5/GpH7-B3/GpL16-k0 = 100).

B14: GpH7-A5/GpH7-B3 variant H268_15Y/GpL16-k0 (antibody, human IgG1, kappa)
heavy 1: not shown
heavy 2: not shown
light: DIVMTQSPLSLPVTPGEPASISCQASESLVHSNRNTYLHWYLQKPGQSPQLLIYKVSNRFSGVPDRFSGSGSGTDFTLKISRVEAEDVGVYYCSQNTHVPPTFGQGTKVEIERTVAAPSVFIFPPSDEQLKSGTASVVCLLNNFYPREAKVQWKVDNALQSGNSQESVTEQDSKDSTYSLSSTLTLSKADYEKHKVYACEVTHQGLSSPVTKSFNRGEC
notes: also called He Ab H268_15Y
Regarding B14, the He/Con_2aR was 110 % (GpH7-A5/GpH7-B3/GpL16-k0 = 100).

B15: GpH7-A5/GpH7-B3 variant G237_20W/GpL16-k0 (antibody, human IgG1, kappa)
heavy 1: not shown
heavy 2: not shown
light: DIVMTQSPLSLPVTPGEPASISCQASESLVHSNRNTYLHWYLQKPGQSPQLLIYKVSNRFSGVPDRFSGSGSGTDFTLKISRVEAEDVGVYYCSQNTHVPPTFGQGTKVEIERTVAAPSVFIFPPSDEQLKSGTASVVCLLNNFYPREAKVQWKVDNALQSGNSQESVTEQDSKDSTYSLSSTLTLSKADYEKHKVYACEVTHQGLSSPVTKSFNRGEC
notes: also called He Ab G237_20W
B15: the He/Con_2aR was 138 % (GpH7-A5/GpH7-B3/GpL16-k0 = 100).

B16: GpH7-A5/GpH7-B3 variant H268_11K/GpL16-k0 (antibody, human IgG1, kappa)
heavy 1: not shown
heavy 2: not shown
light: DIVMTQSPLSLPVTPGEPASISCQASESLVHSNRNTYLHWYLQKPGQSPQLLIYKVSNRFSGVPDRFSGSGSGTDFTLKISRVEAEDVGVYYCSQNTHVPPTFGQGTKVEIERTVAAPSVFIFPPSDEQLKSGTASVVCLLNNFYPREAKVQWKVDNALQSGNSQESVTEQDSKDSTYSLSSTLTLSKADYEKHKVYACEVTHQGLSSPVTKSFNRGEC
notes: also called He Ab H268_11K
Turning to B16, the He/Con_2aR is 100 % (GpH7-A5/GpH7-B3/GpL16-k0 = 100).
